Data published in the supplement of paper PMC11246515.
± gives the standard deviation of the averaged measurements.

Assay: total protein half-life in vivo (active degradation + dilution); higher = more stable protein
[1] = E. coli NCM3722 delta-clpP delta-lon delta-hslV, growth: N-lim chemostat, doubling time 6 h
[2] = E. coli NCM3722 delta-clpP, growth: N-lim chemostat, doubling time 6 h
[3] = E. coli NCM3722 delta-hslV, growth: N-lim chemostat, doubling time 6 h
[4] = E. coli NCM3722 delta-lon, growth: N-lim chemostat, doubling time 6 h
[5] = E. coli NCM3722 delta-smpB, growth: N-lim chemostat, doubling time 6 h
[6] = wild type E. coli NCM3722, growth: C-lim chemostat, doubling time 3 h
[7] = wild type E. coli NCM3722, growth: C-lim chemostat, doubling time 6 h
[8] = wild type E. coli NCM3722, growth: C-lim chemostat, doubling time 12 h
[9] = wild type E. coli NCM3722, growth: N-lim chemostat, doubling time 6 h
[10] = wild type E. coli NCM3722, growth: N-lim chemostat, doubling time 12 h
[11] = wild type E. coli NCM3722, growth: P-lim chemostat, doubling time 6 h
[12] = wild type E. coli NCM3722, growth: P-lim chemostat, doubling time 12 h

Row | Sequence | total protein half-life in vivo [1] | total protein half-life in vivo [2] | total protein half-life in vivo [3] | total protein half-life in vivo [4] | total protein half-life in vivo [5] | total protein half-life in vivo [6] | total protein half-life in vivo [7] | total protein half-life in vivo [8] | total protein half-life in vivo [9] | total protein half-life in vivo [10] | total protein half-life in vivo [11] | total protein half-life in vivo [12]
1 | MTSENPLLALREKISALDEKLLALLAERRELAVEVGKAKLLSHRPVRDIDRERDLLERLITLGKAHHLDAHYITRLFQLIIEDSVLTQQALLQQHLNKINPHSARIAFLGPKGSYSHLAARQYAARHFEQFIESGCAKFADIFNQVETGQADYAVVPIENTSSGAINDVYDLLQHTSLSIVGEMTLTIDHCLLVSGTTDLSTINTVYSHPQPFQQCSKFLNRYPHWKIEYTESTSAAMEKVAQAKSPHVAALGSEAGGTLYGLQVLERIEANQRQNFTRFVVLARKAINVSDQVPAKTTLLMATGQQAGALVEALLVLRNHNLIMTRLESRPIHGNPWEEMFYLDIQANLESAEMQKALKELGEITRSMKVLGCYPSENVVPVDPT [P0A9J8] | 5.3 ± 1.8 h | 4.03 ± 0.25 h | 4.9 ± 1.2 h | 4.67 ± 0.14 h | 4.1437 ± 0.0033 h | 2.62 ± 0.6 h | 5.375 ± 0.04 h | 11 ± 0.42 h | 4.129 ± 0.037 h | 6.55 ± 0.09 h | 5.88 ± 0.58 h | 11.77 ± 0.076 h
2 | MTSLVVPGLDTLRQWLDDLGMSFFECDNCQALHLPHMQNFDGVFDAKIDLIDNTILFSAMAEVRPSAVLPLAADLSAINASSLTVKAFLDMQDDNLPKLVVCQSLSVMQGVTYEQFAWFVRQSEEQISMVILEANAHQLLLPTDDEGQNNVTENYFLH [P0AAY6] | 2.64 ± 2.3 h |  | 2.7 h | 4.39 h | 1.74 ± 1.4 h |  |  | 1.21 h | 0.868 h |  |  | 
3 | MTSSLPCGQTSLLLQMTERLALSDAHFRRISQLIYQRAGIVLADHKRDMVYNRLVRRLRSLGLTDFGHYLNLLESNQHSGEWQAFINSLTTNLTAFFREAHHFPLLADHARRRSGEYRVWSAAASTGEEPYSIAMTLADTLGTAPGRWKVFASDIDTEVLEKARSGIYRHEELKNLTPQQLQRYFMRGTGPHEGLVRVRQELANYVDFAPLNLLAKQYTVPGPFDAIFCRNVMIYFDQTTQQEILRRFVPLLKPDGLLFAGHSENFSHLERRFTLRGQTVYALSKD |  | 6.56 h |  |  |  | 1.34 h |  | 3.42 h |  |  |  | 
4 | MTSSYLHFPEFDPVIFSIGPVALHWYGLMYLVGFIFAMWLATRRANRPGSGWTKNEVENLLYAGFLGVFLGGRIGYVLFYNFPQFMADPLYLFRVWDGGMSFHGGLIGVIVVMIIFARRTKRSFFQVSDFIAPLIPFGLGAGRLGNFINGELWGRVDPNFPFAMLFPGSRTEDILLLQTNPQWQSIFDTYGVLPRHPSQLYELLLEGVVLFIILNLYIRKPRPMGAVSGLFLIGYGAFRIIVEFFRQPDAQFTGAWVQYISMGQILSIPMIVAGVIMMVWAYRRSPQQHVS | > 8 h |  |  | 7.73 h |  |  |  |  | 6.89 ± 0.72 h |  | 6.28 ± 0.24 h | 11.5 ± 0.95 h
5 | MTTLSCKVTSVEAITDTVYRVRIVPDAAFSFRAGQYLMVVMDERDKRPFSMASTPDEKGFIELHIGASEINLYAKAVMDRILKDHQIVVDIPHGEAWLRDDEERPMILIAGGTGFSYARSILLTALARNPNRDITIYWGGREEQHLYDLCELEALSLKHPGLQVVPVVEQPEAGWRGRTGTVLTAVLQDHGTLAEHDIYIAGRFEMAKIARDLFCSERNAREDRLFGDAFAFI [P0AEN1] | 5.7 ± 0.93 h | 4.72 ± 0.087 h | 4.19 ± 0.12 h | 4.62 ± 0.48 h | 4.21 ± 0.8 h | 2.74 ± 0.19 h | 5.78 ± 0.43 h | 8.71 ± 1.9 h | 4.2 ± 0.26 h | 7.18 ± 0.22 h | 4.62 ± 1 h | 9.49 ± 0.3 h
